From PMC548347

Target: T1, SSB (single-strand binding protein) (Sulfolobus solfataricus, UniProt Q97W73 1-148)
T1 sequence: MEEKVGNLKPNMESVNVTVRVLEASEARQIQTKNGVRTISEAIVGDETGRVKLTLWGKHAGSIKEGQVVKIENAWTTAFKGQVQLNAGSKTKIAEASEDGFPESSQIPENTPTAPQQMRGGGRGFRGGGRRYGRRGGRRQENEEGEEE
Assay: EMSA

B1: RGA oligonucleotide (dsDNA)
DNA 1: GGCTGTCGACGAAGATAGAGGACTTAATCGATATC
DNA 2: GGGATATCGATTAAGTCCTCTATCTTCGTCGACAG
- binding result: binds
